Results taken from US20220002395A1 (FAPON BIOTECH, published 2022).
Where a chain is given by its changes, count along the chain named.

T1: Plasmodium falciparum histidine-rich protein II (HRP-II) (Plasmodium falciparum, UniProt P05227 22-332)
T1 construct: Coating antigen of all ELISAs; also called HRP-II protein; MA-HRPII Ag protein
T1 sequence (looked up): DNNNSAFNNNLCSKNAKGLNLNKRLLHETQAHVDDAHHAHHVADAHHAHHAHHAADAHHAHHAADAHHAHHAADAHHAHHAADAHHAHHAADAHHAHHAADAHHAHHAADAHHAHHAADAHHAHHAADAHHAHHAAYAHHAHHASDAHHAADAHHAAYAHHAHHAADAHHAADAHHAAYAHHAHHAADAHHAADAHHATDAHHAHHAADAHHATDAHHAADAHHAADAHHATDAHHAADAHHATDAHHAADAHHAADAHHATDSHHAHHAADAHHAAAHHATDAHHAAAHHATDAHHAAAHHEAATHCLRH

B1: Anti-HRP-II 3R5 monoclonal antibody (recombinant, expressed in CHO cells; WT) (antibody, mouse IgG2b, kappa, V domains shown)
VH: EVQLQQSGPEVVKPGASVKISCKASGSTLTEYYMNWVKQSHGKGLEWIGDLNPINGGTPYQQKFRDKATLTVDKSSNTAYMELRSLTSEDSALYYCTRGAEEYWGQGTTLTVSS
VL: DVVLTQTPLSLSVTIGQPASISCKSSQSIIYSNGKIYINWFQQRPGQSPKRLMYQLSKIDPGIPDRFSGSGSETDFTLKISRVEAEDLGVYYCLQGTYSPNTFGGGTKLEIKR
notes: Mouse IgG; also called Anti-HRP-H3R5; CHO transient-transfected cell supernatant
B2: Mutation 2 (antibody, mouse IgG2b, kappa, V domains shown)
VH: B1 VH
VL: B1 VL with I38L
notes: WT as framework
B3: Mutation 3 (antibody, mouse IgG2b, kappa, V domains shown)
VH: B1 VH with E31Q, P59V, E102M
VL: B1 VL with I38G, I59F, N101M
notes: WT as framework
B4: Mutation 1 (antibody, mouse IgG2b, kappa, V domains shown)
VH: B1 VH with E31D, P59A, E102D
VL: B1 VL with I38L, I59L, N101Q
notes: also called Variant 1
B5: Mutation 1-37 (antibody, mouse IgG2b, kappa, V domains shown)
VH: B1 VH with S27Y, L29I, E31D, L51I, P59A, R98K, E102D
VL: B1 VL with I29L, I30L, I38L, L56I, I59L, D60E, G96A, S99Y, N101Q
notes: Mutation 1 as framework
B6: Mutation 1-39 (antibody, mouse IgG2b, kappa, V domains shown)
VH: B1 VH with S27T, E31D, P59A, R98K, E102D
VL: B1 VL with I29L, I30L, I38L, I59L, D60E, G96A, S99T, N101Q
notes: Mutation 1 as framework
B7: Mutation 1-31 (antibody, mouse IgG2b, kappa, V domains shown)
VH: B1 VH with S27T, E31D, L51I, P59A, R98K, E102D
VL: B1 VL with I29L, I30L, I38L, L56I, I59L, D60E, S99T, N101Q
notes: Mutation 1 as framework
B8: Mutation 1-32 (antibody, mouse IgG2b, kappa, V domains shown)
VH: B1 VH with S27Y, L29I, E31D, L51V, N55Q, P59A, E102D
VL: B1 VL with I29L, I30L, I38L, I59L, G96A, S99Y, N101Q
notes: Mutation 1 as framework
B9: Mutation 1-47 (antibody, mouse IgG2b, kappa, V domains shown)
VH: B1 VH with L29I, E31D, L51V, P59A, Q61N, R98K, E102D
VL: B1 VL with I30L, N33Q, I38L, L56V, I59L, D60E, G96A, N101Q
notes: Mutation 1 as framework
B10: Mutation 1-49 (antibody, mouse IgG2b, kappa, V domains shown)
VH: B1 VH with S27Y, E31D, L51I, N55Q, P59A, Q61N, R98K, E102D
VL: B1 VL with I29L, I30L, N33Q, I38L, L56I, I59L, D60E, G96A, S99T, N101Q
notes: Mutation 1 as framework
B11: Mutation 1-33 (antibody, mouse IgG2b, kappa, V domains shown)
VH: B1 VH with S27T, E31D, N55Q, P59A, Q61N, R98K, E102D
VL: B1 VL with I29L, I30L, I38L, I59L, D60E, N101Q
notes: Mutation 1 as framework
B12: Mutation 1-48 (antibody, mouse IgG2b, kappa, V domains shown)
VH: B1 VH with S27Y, L29I, E31D, N55Q, P59A, Q61N, E102D
VL: B1 VL with I29L, I30L, N33Q, I38L, L56I, I59L, S99Y, N101Q
notes: Mutation 1 as framework
B13: Mutation 1-35 (antibody, mouse IgG2b, kappa, V domains shown)
VH: B1 VH with S27Y, L29I, E31D, L51V, N55Q, P59A, E102D
VL: B1 VL with I29L, I30L, I38L, L56V, I59L, D60E, G96A, S99Y, N101Q
notes: Mutation 1 as framework
B14: Mutation 1-41 (antibody, mouse IgG2b, kappa, V domains shown)
VH: B1 VH with S27Y, E31D, L51V, P59A, R98K, E102D
VL: B1 VL with I30L, I38L, L56V, I59L, D60E, G96A, S99Y, N101Q
notes: Mutation 1 as framework
B15: Mutation 1-46 (antibody, mouse IgG2b, kappa, V domains shown)
VH: B1 VH with S27Y, L29I, E31D, L51I, P59A, Q61N, E102D
VL: B1 VL with I30L, N33Q, I38L, L56V, I59L, S99T, N101Q
notes: Mutation 1 as framework
B16: Mutation 1-50 (antibody, mouse IgG2b, kappa, V domains shown)
VH: B1 VH with S27Y, L29I, E31D, L51V, N55Q, P59A, E102D
VL: B1 VL with I29L, I30L, I38L, I59L, D60E, G96A, S99Y, N101Q
notes: Mutation 1 as framework
B17: Mutation 1-45 (antibody, mouse IgG2b, kappa, V domains shown)
VH: B1 VH with S27Y, L29I, E31D, P59A, Q61N, R98K, E102D
VL: B1 VL with I30L, N33Q, I38L, I59L, D60E, S99Y, N101Q
notes: Mutation 1 as framework
B18: WT 1-3 (antibody, mouse IgG2b, kappa, V domains shown)
VH: B1 VH with L29I, R98K
VL: B1 VL with L56V, D60E, S99Y
notes: WT as framework
B19: WT 1-4 (antibody, mouse IgG2b, kappa, V domains shown)
VH: B1 VH with S27T, L51V, Q61N, R98K
VL: B1 VL with I29L, N33Q, L56I, D60E, G96A, S99T
notes: WT as framework
B20: WT 1-1 (antibody, mouse IgG2b, kappa, V domains shown)
VH: B1 VH with S27Y, L29I, L51V, R98K
VL: B1 VL with I29L, I30L, L56I, D60E, G96A
notes: WT as framework
B21: WT 1-5 (antibody, mouse IgG2b, kappa, V domains shown)
VH: B1 VH with S27Y, L29I, N55Q
VL: B1 VL with I29L, I30L, N33Q, G96A
notes: WT as framework
B22: WT 1-2 (antibody, mouse IgG2b, kappa, V domains shown)
VH: B1 VH with S27T, L51I, N55Q, Q61N
VL: B1 VL with I30L, N33Q, G96A, S99T
notes: WT as framework

Target: T1, Plasmodium falciparum histidine-rich …
Assay: indirect ELISA, coated MA-HRPII Ag 1 ug/ml, antibody 200 ng/ml

In order of falling “OD value at 450 nm (ref 630 nm)” value:
1. B4  2.4 OD
2. B2  2.05 OD
3. B1  1.97 OD
4. B3  0.635 OD

Target: T1, Plasmodium falciparum histidine-rich …
Assay: indirect ELISA, coated MA-HRPII Ag 1 ug/ml, antibody 40 ng/ml

In order of falling “OD value at 450 nm (ref 630 nm)” value:
1. B4  0.695 OD
2. B2  0.551 OD
3. B1  0.402 OD
4. B3  0.032 OD

Target: T1, Plasmodium falciparum histidine-rich …
Assay: indirect ELISA, four antigen coating concentrations
Description: The OD values corresponding to different antibody concentrations with different coating concentrations are obtained. Under the same coating concentration, the antibody concentrations are used as an abscissa, the OD values are used as an ordinate, and a logarithmic plot is made. […] An average value thereof is taken and a reciprocal thereof is calculated to get the affinity constant KD.

B1 gave a Kd of 0.633 nM.

Target: T1, Plasmodium falciparum histidine-rich …
Assay: indirect ELISA, coated MA-HRPII Ag 1 ug/ml, antibody 0.32 ng/ml

In order of rising “OD value at 450 nm (ref 630 nm)” value:
1. B1  0.058 OD
2. B2  0.077 OD
3. B4  0.089 OD

Target: T1, Plasmodium falciparum histidine-rich …
Assay: indirect ELISA, coated MA-HRPII Ag 1 ug/ml, antibody 1.6 ng/ml

In order of rising “OD value at 450 nm (ref 630 nm)” value:
1. B1  0.053 OD
2. B2  0.101 OD
3. B4  0.16 OD

Target: T1, Plasmodium falciparum histidine-rich …
Assay: indirect ELISA, four antigen coating concentrations
Remark: another data set of the same source
Description: The OD values corresponding to different antibody concentrations with different coating concentrations are obtained. Under the same coating concentration, the antibody concentrations are used as an abscissa, the 00 values are used as an ordinate, and a logarithmic plot is made. […] An average value thereof is taken and a reciprocal thereof is calculated to get the affinity constant KD.

In order of rising Kd:
1. B4  0.0521 nM
2. B15  0.0721 nM
3. B9  0.0828 nM
4. B7  0.0946 nM
5. B10  0.0956 nM
6. B11  0.169 nM
7. B6  0.233 nM
8. B8  0.244 nM
9. B14  0.302 nM
10. B12  0.333 nM
11. B5  0.365 nM
12. B16  0.382 nM
13. B17  0.384 nM
14. B13  0.521 nM

Target: T1, Plasmodium falciparum histidine-rich …
Assay: indirect ELISA, coated MA-HRPII Ag 1 ug/ml, antibody 8 ng/ml

In order of falling “OD value at 450 nm (ref 630 nm)” value:
1. B4  0.288 OD
2. B2  0.189 OD
3. B1  0.122 OD

Target: T1, Plasmodium falciparum histidine-rich …
Assay: indirect ELISA, four antigen coating concentrations
Remark: another data set of the same source

In order of rising Kd:
1. B22  0.0856 nM
2. B18  0.0923 nM
3. B21  0.311 nM
4. B20  0.521 nM
5. B19  0.582 nM
6. B1  0.633 nM

Target: T1, Plasmodium falciparum histidine-rich …
Assay: indirect ELISA, coated MA-HRPII Ag 1 ug/ml, antibody 1000 ng/ml

In order of rising “OD value at 450 nm (ref 630 nm)” value:
1. B3  0.814 OD
2. B2  2.23 OD
3. B1  2.34 OD
4. B4  2.52 OD
